Measured values: US20220193270A1, “METHOD FOR ENHANCING TUMOR GROWTH” (MINERVA BIOTECHNOLOGIES CORPORATION, priority 2013, published 2022)

How the values were obtained:
[1] = test system: DU145 MUC1-positive prostate cancer cells; experiment: RT-PCR of cancer stem cell markers in DU145 cells cultured with agent; assay type: cell-based, human; details: after 9-10 passages; FIG. 11b
Method: (§1) Example 3: Agents that are able to maintain stem cells in the naïve state transform cancer cells into cancer stem cells wherein only a small number of cells are required for engraftment. Cancer cells were cultured according to standard practice. In the controls, the cancer cells were cultured in their normal media: RPMI for T47D breast cancer cells, DU145 and PC3 prostate cancer cells. However, the test agents, recombinant proteins human NME1 dimers, bacterial HSP593 NME1 dimers, human NME7-AB and 2i, were added to a serum-free minimal media to eliminate potential interference from the many growth factors and cytokines in serum.
(§2) To this serum-free minimal media, rhNME1 (aka NM23) was added to a final concentration of 8 nM, or bacterial HSP593 recombinant NME1 was added to a final concentration of 8 nM, or rhNME7-AB was added to a final concentration of 4 nM, or 2i inhibitors, PD0325901 and CHIR99021, which inhibit the MAP kinase pathway and GSK3, respectively, were added to a final concentration of 3 μM and 1 μM.
Example 3b: Prostate cancer cells were also cultured as described above with either human NME1 dimers, bacterial NME1 dimers, NME7-AB, or 2i inhibitors. […] Thus, the RT-PCR measurements of the cancer stem cell markers are lower than that of the T47D cells, which could be explained by it being the measure of transformed cells and non-transformed cells. In the case of breast cancer cells, we were able to isolate the fully transformed cancer stem cells by collecting the floating cells, but were not able to do so here. DU145 MUC1-positive prostate cancer cells were cultured in RPMI media as a control and in minimal media to which was added recombinant human NME1/NM23 dimers, bacterial HSP593 dimers, or human NME7-AB. […] There was about a 2-8-fold increase in OCT4, MUC1 and CDH1/E-cadherin. However, after serial passaging under these same culture conditions, the increases in expression of cancer stem cell markers became more pronounced. We reasoned that serial passaging allowed more time for cells to transform since we could not rapidly collect floating cells.

[2] = test system: MUC1-positive T47D breast cancer cells; experiment: RT-PCR of cancer stem cell markers and chromatin rearrangement factors in T47D cells cultured in serum-free minimal media with agent; assay type: cell-based, human
Method: as §1
Serum-free Minimal Media 500 mL includes the following components: 394 mL DMEM/F12, GlutaMAX; 100 mL Knockout™ Serum Replacement; 5.0 mL 100×MEM Non-essential Amino Acid Solution; 0.9 mL P-mercaptoethanol, 55 mM stock.
as §2
When a rho kinase inhibitor, “Ri” or “ROCi”, was added it was Y27632 from Stemgent (Cambridge, Mass.), added immediately before use to a final concentration of 10 uM.
Example 3a: Breast cancer T47D cells were cultured either in the traditional RPMI growth media or in a minimal stem cell media to which was added either human NME1 dimers, also known as NM23-H1, bacterial HSP593 NME1 dimers, human NME7-AB, or kinase inhibitors known as ‘2i’. What these agents have in common is that they are each able to promote the growth of stem cells in the naive state or are able to revert primed state stem cells to the less mature naive state. We observed that some of the T47D cancer cells cultured in any of these agents became non-adherent. These ‘floaters’ were also morphologically different. The addition of a rho kinase inhibitor, called ‘Ri’ or ‘ROCP here caused most of the cells to remain attached to the surface. […] When a rho kinase inhibitor is added, all the cells remain attached but the RT-PCR measurements indicate that the resultant measure is of a mixture of the cells that were transformed and those that were not or were not yet.
Example 3c: In this example, the effect of ‘2i’ inhibitors on cancer cells was tested. Recall that 2i is the name given to 2 small molecules, […] that inhibit the MAP kinase pathway and GSK3 respectively. […] In this experiment, we cultured MUCl-positive T47D breast cancer cells in minimal media to which was added either 2i or NME7-AB.

[3] = test system: T47D breast cancer cells; experiment: T47D xenograft engraftment, cells mixed with Matrigel plus NME7, with or without daily NME7 injections; assay type: in vivo, nu/nu mice
Method: Example 1: Immune-compromised nu/nu mice between 40-60 days old were implanted with 90-day estrogen release pellets to foster the engraftment and growth of breast tumor cells. Human T47D breast cancer cells were mixed 1:2 with Matrigel then injected into the flank of the mouse (4 million each mouse), six (6) mice per group. In a second group, cancer cells were mixed with Matrigel at the same 1:2 ratio (100 uL cells: 200 ul Matrigel) except, human recombinant NME7-AB was added into the cell/Matrigel mix to a final NME7 concentration of 16 nM (6 mice). Of those six (6) mice, three (3) were randomly chosen to receive NME7 injections daily (100 uL at 32 nM), after day 14. […] After Day 14, the mice whose tumor cells were mixed with NME7 were also injected once daily with human recombinant NME7. […] After Day 14, half of the mice were also injected once daily with human recombinant NME7. […] Dashed lines indicate mice that were also injected with NME7 after Day 14.

[4] = test system: PC3 MUC1-negative prostate cancer cells; experiment: RT-PCR of stem cell markers in PC3 cells cultured with agent; assay type: cell-based, human
Method: as §1, §2
PC3 MUCl-negative prostate cancer cells were also tested for their ability to transform into cancer stem cells when cultured in agents that are able to maintain stem cells in the naïve state. PC3 cells were cultured as described above with either human NME1 dimers, bacterial NME1 dimers or NME7-AB. […] Thus, the RT-PCR measurements of the cancer stem cell markers may be lower because measurements will be the average of transformed cells and non-transformed cells.

[5] = serum-free minimal media with agent vs RPMI, FIG. 6
[6] = summary statement, cells not named

B1: NME7-AB: recombinant human NME7 variant (A and B domains, SEQ ID NO:39) secreted as a monomer; 'NME7' in the experiments means this protein (protein)
chain: MEKTLALIKPDAISKAGEIIEIINKAGFTITKLKMMMLSRKEALDFHVDHQSRPFFNELIQFITTGPIIAMEILRDDAICEWKRLLGPANSGVARTDASESIRALFGTDGIRNAAHGPDSFASAAREMELFFPSSGGCGPANTAKFTNCTCCIVKPHAVSEGLLGKILMAIRDAGFEISAMQMFNMDRVNVEEFYEVYKGVVTEYHDMVTEMYSGPCVAMEIQQNNATKTFREFCGPADPEIARHLRPGTLRAIFGKTKIQNAVHCTDLPEDGLLEVQYFFKILDN
modifications: Human NME7-AB
notes: 'NME7' in the experiments means this protein
- expression of NANOG and OCT4 [1]: significant increases
- increase in the expression of CDH1/E-cadherin [1]: 9 fold
- expression of NANOG, KLF2, KLF4 and TBX3 ([2]; FIG. 6): modest increases
- expression of CDH1 (E-cadherin), MUC1 and NANOG ([2]; FIG. 7): increases
- expression of CXCR4, SOX2 and OCT4 ([2]; FIG. 7): dramatic increases
- expression of stem cell markers KLF2 and KLF4 ([2]; FIG. 7): modest increases
- expression level of the cancer stem cell markers ([2]; FIG. 9 and FIG. 10, combinations with 2i versus NME7-AB alone): even higher expression level
- expression of MBD3, CHD4, BRD4 and JMJD6 ([2]; cancer cells cultured in agent, FIG. 13, FIG. 14): naturally suppressed
- overexpression of metastasis receptor CXCR4 ([2]; floaters after seven (7) days in recombinant human NME7-AB, FIG. 21 legend): more than 100 fold
- expression of CXCR4 over control cells cultured in RPMI media ([2]; floating cells after 7-10 days in minimal media with 4 nM rhNME7-AB, cells used for implantation): 130 times
- expression of chromatin rearrangement factors MBD3 and CHD4 ([2]; minimal media with agent, FIG. 13, FIG. 14): suppressed expression
- expression of metastatic receptor CXCR4 relative to T47D cells in normal growth media ([2]; serum-free minimal media with agent as single growth factor vs RPMI, FIG. 6): ~200 times
- CDH1 (E-cadherin) expression increase ([2]; serum-free minimal media with agent vs RPMI): about 10 fold
- MUC1 expression increase [2, 5]: about 10 fold
- OCT4 expression increase [2, 5]: about 50 times
- SOX2 expression increase [2, 5]: ~200 times
- up-regulation of CXCR4 [2, 6]: 200 ×
- up-regulation of KLF4 [2, 6]: 4 ×
- up-regulation of MUC1 [2, 6]: 10 ×
- up-regulation of SOX2 [2, 6]: > 150 ×
- engraftment rate ([3]; cancer cells mixed with NME7 prior to implantation alone): 33%
- engraftment rate ([3]; mixed with NME7 prior to implantation plus NME7 injections into the animal after cell implantation): 66%
- implanted mice showing tumor growth characteristic of engraftment ([3]; of six (6) implanted mice, T47D mixed with Matrigel and NME7 (two of six with standard Matrigel)): 4
- average growth increase from Day 7 until day 21 ([3]; tumors mixed with NME7 prior to implantation (57% without it)): 144%
- expression of stem cell markers SOX2, OCT4 and NANOG ([4]; after passage in agent, FIG. 12a): modest increases
- expression of cancer stem cell or stem cell markers ([4]; serial passaging in the media, FIG. 12b): decreased
